Columns and labels:
CD8+ T cells = experiment: In vitro T-cell priming assay with artificial antigen presenting cells loaded with peptide/MHC complexes and anti-CD28 antibody, pMHC multimer readout; format: cell-based, human; conditions: in vitro immunogenicity, peptide-specific multimer+ CD8+ T cells
Excerpt: In order to obtain information regarding the immunogenicity of the TUMAPs of the present invention, the inventors performed investigations using an in vitro T-cell priming assay based on repeated stimulations of CD8+ T cells with artificial antigen presenting cells (aAPCs) loaded with peptide/MHC complexes and anti-CD28 antibody.
In order to perform in vitro stimulations by artificial antigen presenting cells loaded with peptide-MHC complex (pMHC) and anti-CD28 antibody, the inventors first isolated CD8+ T cells from fresh HLA-A*02 leukapheresis products via positive selection using CD8 microbeads (Miltenyi Biotec, Bergisch-Gladbach, Germany) of healthy donors obtained from the University clinics Mannheim, Germany, after informed consent.
PBMCs and isolated CD8+ lymphocytes were incubated in T-cell medium (TCM) until use consisting of RPMI-Glutamax (Invitrogen, Karlsruhe, Germany) supplemented with 10% heat inactivated human AB serum (PAN-Biotech, Aidenbach, Germany), 100 U/ml Penicillin/100 μg/ml Streptomycin (Cambrex, Cologne, Germany), 1 mM sodium pyruvate (CC Pro, Oberdorla, Germany), 20 μg/ml Gentamycin (Cambrex). 2.5 ng/ml IL-7 (PromoCell, Heidelberg, Germany) and 10 U/ml IL-2 (Novartis Pharma, Nurnberg, Germany) were also added to the TCM at this step.
Generation of pMHC/anti-CD28 coated beads, T-cell stimulations and readout was performed in a highly defined in vitro system using four different pMHC molecules per stimulation condition and 8 different pMHC molecules per readout condition.
The purified co-stimulatory mouse IgG2a anti human CD28 Ab 9.3 (Jung et al., 1987) was chemically biotinylated using Sulfo-N-hydroxysuccinimidobiotin as recommended by the manufacturer (Perbio, Bonn, Germany). Beads used were 5.6 μm diameter streptavidin coated polystyrene particles (Bangs Laboratories, Illinois, USA).
pMHC used for positive and negative control stimulations were A*0201/MLA-001 (peptide […] (SEQ ID NO. 433) from modified Melan-A/MART-1) and A*0201/DDX5-001 ([…] from DDX5, SEQ ID NO. 434), respectively.
800.000 beads/200 μI were coated in 96-well plates in the presence of 4×12.5 ng different biotin-pMHC, washed and 600 ng biotin anti-CD28 were added subsequently in a volume of 200 μI. Stimulations were initiated in 96-well plates by co-incubating 1×10^6 CD8+ T cells with 2×10^5 washed coated beads in 200 μI TCM supplemented with 5 ng/ml IL-12 (PromoCell) for 3 days at 37° C. Half of the medium was then exchanged by fresh TCM supplemented with 80 U/ml IL-2 and incubating was continued for 4 days at 37° C. This stimulation cycle was performed for a total of three times. For the pMHC multimer readout using 8 different pMHC molecules per condition, a two-dimensional combinatorial coding approach was used as previously described (Andersen et al., 2012) with minor modifications encompassing coupling to 5 different fluorochromes. Finally, multimeric analyses were performed by staining the cells with Live/dead near IR dye (Invitrogen, Karlsruhe, Germany), CD8-FITC antibody clone SK1 (BD, Heidelberg, Germany) and fluorescent pMHC multimers. For analysis, a BD LSRII SORP cytometer equipped with appropriate lasers and filters was used. Peptide specific cells were calculated as percentage of total CD8+ cells. Evaluation of multimeric analysis was done using the FlowJo software (Tree Star, Oregon, USA). In vitro priming of specific multimer+CD8+ lymphocytes was detected by comparing to negative control stimulations.

HLA-A*01:01 = HLA-A*01:01 (Homo sapiens, UniProt P04439, A114D/A174V/A182V/D101N/D185E/E176A/E190D/L180R/Q94H/R68K/S129P/T187R/V100A/V91M/W191G); experiment: MHC binding assay: UV-ligand exchange, ELISA of stabilized MHC complexes (peptide exchange yield); conditions: binding to HLA-A*01:01, UV-ligand exchange
In short: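 Peptide–MHC complexes were formed by UV-induced exchange of a photocleavable ligand for the test peptide. Exchange yield was measured by streptavidin-capture ELISA of 100-fold diluted complexes, detected with HRP anti-β2m at A450. Refolded HLA-A*02:01/MLA-001 monomers at 15-500 ng/ml served as standards.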

Row | Substance | Peptide exchange (HLA-A*01:01) | Wells positive [%] (CD8+ T cells; Table 10a) | Wells positive [%] (CD8+ T cells; Table 10b)
1 | 403 (SADDIRGIQSLY; listed as Homo sapiens) [compound 403] | – | + (<20% = +) | –
2 | 11 (ASDHWRGRY; listed as Homo sapiens) [compound 11] | +++ (>50 = +++) | – | +++ (50%-69% = +++)
3 | 19 (LTEGHSGNY; listed as Homo sapiens) [compound 19] | ++++ (>75% = ++++) | – | + (<20% = +)
4 | 82 (LTEKSHIRY; listed as Homo sapiens) [compound 82] | +++ (>50 = +++) | – | + (<20% = +)
5 | 24 (NLDHYTNAY; listed as Homo sapiens) [compound 24] | +++ (>50 = +++) | – | + (<20% = +)
6 | 421 (RSDPGGGGLAY; listed as Homo sapiens) [compound 421] | – | + (<20% = +) | –
7 | 399 (YVGKEHMFY; listed as Homo sapiens) [compound 399] | – | + (<20% = +) | –
8 | 404 (FVDNQYWRY; listed as Homo sapiens) [compound 404] | – | + (<20% = +) | –
9 | 415 (VWSDVTPLNF; listed as Homo sapiens) [compound 415] | – | + (<20% = +) | –
10 | 427 (LTDYINANY; listed as Homo sapiens) [compound 427] | – | + (<20% = +) | –
11 | 401 (VWSNVTPLKF; listed as Homo sapiens) [compound 401] | – | + (<20% = +) | –
12 | 408 (VWSDVTPLTF; listed as Homo sapiens) [compound 408] | – | + (<20% = +) | –
13 | 414 (LTEGHSGNYY; listed as Homo sapiens) [compound 414] | – | + (<20% = +) | –
14 | 420 (VTDLEMPHY; listed as Homo sapiens) [compound 420] | – | + (<20% = +) | –
15 | 400 (NTDNNLAVY; listed as Homo sapiens) [compound 400] | – | + (<20% = +) | –
16 | 417 (KLDRSVFTAY; listed as Homo sapiens) [compound 417] | – | ++++ (>= 70% = ++++) | –
17 | 429 (VSDSECLSRY; listed as Homo sapiens) [compound 429] | – | ++ (20%-49% = ++) | –
18 | 325 (LQKPVLPLY; listed as Homo sapiens) [compound 325] | ++ (>20% = ++) | – | –
19 | 36 (MTSTEQSLY; listed as Homo sapiens) [compound 36] | +++ (>50 = +++) | – | –
20 | 148 (GTKQWVHARY; listed as Homo sapiens) [compound 148] | + (>10% =+) | – | –
21 | 207 (LLEGEDAHLTQY; listed as Homo sapiens) [compound 207] | +++ (>50 = +++) | – | –
22 | 199 (LCAAVLAKY; listed as Homo sapiens) [compound 199] | ++ (>20% = ++) | – | –
23 | 247 (SMIRVGTNY; listed as Homo sapiens) [compound 247] | ++ (>20% = ++) | – | –

Second part, led by results:

Row | Peptide exchange (HLA-A*01:01) | Substance | Wells positive [%] (CD8+ T cells; Table 10a) | Wells positive [%] (CD8+ T cells; Table 10b)
24 | +++ (>50 = +++) | 70 (YTELVEEKY; listed as Homo sapiens) [compound 70] | – | + (<20% = +)
25 | ++++ (>75% = ++++) | 84 (ESEMIKFASYY; listed as Homo sapiens) [compound 84] | – | + (<20% = +)
26 | +++ (>50 = +++) | 64 (TSEISQNALMYY; listed as Homo sapiens) [compound 64] | – | + (<20% = +)
27 | +++ (>50 = +++) | 42 (ASDVDTLLK; listed as Homo sapiens) [compound 42] | – | + (<20% = +)
28 | ++++ (>75% = ++++) | 386 (NSALNPLLY; listed as Homo sapiens) [compound 386] | – | + (<20% = +)
29 | +++ (>50 = +++) | 12 (YTDFVGEGLY; listed as Homo sapiens) [compound 12] | – | + (<20% = +)
30 | ++++ (>75% = ++++) | 18 (RSDPVSLRY; listed as Homo sapiens) [compound 18] | – | ++ (20%-49% = ++)
31 | +++ (>50 = +++) | 83 (DTEFHGGLHY; listed as Homo sapiens) [compound 83] | – | + (<20% = +)
32 | +++ (>50 = +++) | 79 (ASDLEPRELLSY; listed as Homo sapiens) [compound 79] | – | + (<20% = +)
33 | ++++ (>75% = ++++) | 75 (FTDYELKAY; listed as Homo sapiens) [compound 75] | – | + (<20% = +)
34 | +++ (>50 = +++) | 71 (LTDSTTRTTY; listed as Homo sapiens) [compound 71] | – | + (<20% = +)
35 | +++ (>50 = +++) | 33 (SMDPVTGYQY; listed as Homo sapiens) [compound 33] | – | + (<20% = +)
36 | ++++ (>75% = ++++) | 77 (FTSDTGLEY; listed as Homo sapiens) [compound 77] | – | +++ (50%-69% = +++)
37 | +++ (>50 = +++) | 61 (SSDIVALGGFLY; listed as Homo sapiens) [compound 61] | – | ++ (20%-49% = ++)
38 | ++ (>20% = ++) | 317 (EDLLEVLDMY; listed as Homo sapiens) [compound 317] | – | –
39 | +++ (>50 = +++) | 76 (QTDVERIKDTY; listed as Homo sapiens) [compound 76] | – | –
40 | ++ (>20% = ++) | 146 (LCATVCGTEQY; listed as Homo sapiens) [compound 146] | – | –
41 | ++ (>20% = ++) | 256 (HAFESNNFIY; listed as Homo sapiens) [compound 256] | – | –
42 | +++ (>50 = +++) | 330 (EGELSEGEHWY; listed as Homo sapiens) [compound 330] | – | –
43 | +++ (>50 = +++) | 357 (MSPDIALLYL; listed as Homo sapiens) [compound 357] | – | –
44 | +++ (>50 = +++) | 117 (SPAKQFNIY; listed as Homo sapiens) [compound 117] | – | –
45 | ++++ (>75% = ++++) | 65 (SSDFDPLVY; listed as Homo sapiens) [compound 65] | – | –
46 | +++ (>50 = +++) | 269 (LPSPAATIWDY; listed as Homo sapiens) [compound 269] | – | –
47 | ++++ (>75% = ++++) | 85 (SSDNYEHWLY; listed as Homo sapiens) [compound 85] | – | –
48 | +++ (>50 = +++) | 335 (PSSMPECLSYY; listed as Homo sapiens) [compound 335] | – | –
49 | ++ (>20% = ++) | 214 (VQDPSLPVY; listed as Homo sapiens) [compound 214] | – | –
50 | +++ (>50 = +++) | 55 (ATEGDVLNY; listed as Homo sapiens) [compound 55] | – | –
51 | ++ (>20% = ++) | 273 (CGPNEINHFY; listed as Homo sapiens) [compound 273] | – | –
52 | ++ (>20% = ++) | 365 (FVDTKVPEH; listed as Homo sapiens) [compound 365] | – | –
53 | +++ (>50 = +++) | 340 (SVDSNLVAY; listed as Homo sapiens) [compound 340] | – | –

Reference: patent publication US12195506B2, “Immunotherapy with A*01 restricted peptides and combination of peptides against cancers and related methods” (Immatics Biotechnologies GmbH, priority 2018, dated 2025)
